B1: library; numbered along this chain (parent)
chain: MAAAGGARLLRAASAVLGGPAGRWLHHAGSRAGSSGLLRNRGPGGSAEASRSLSVSARARSSSEDKITVHFINRDGETLTTKGKVGDSLLDVVVENNLDIDGFGACEGTLACSTCHLIFEDHIYEKLDAITDEENDMLDLAYGLTDRSRLGCQICLTKSMDNMTVRVPETVADARQSIDVGKTS

Variants of: B1
Experiment: scaled log2 fold change in cell abundance, elesclomol vs control (0 = silent mean, 1 = nonsense mean) (scaled log2 ratio); higher = higher viability under elesclomol (loss of FDX1 cuproptosis function)
Details: glucose 10 mM
[1] = with ABC1 FDX1 KO, elesclomol 5 nM, 14 days
[2] = with HEK293T FDX1 KO, elesclomol 40 nM, 11 days
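Further: variant abundance is its share of total variant reads in each endpoint sample, from next-generation sequencing of the integrated ORF PCR-amplified out of genomic DNA.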

Variant | scaled log2 fold change [1] | scaled log2 fold change [2]
F71N | 1.07 | 1.17
F71P | 1.18 | 1.13
F71G | 1.09 | 0.752
F71L | -0.0155 | -0.376
F71H | 1.22 | 1.17
F71I | -0.753 | -0.554
F71A | 0.63 | 0.751
F71K | 1.18 | 1.46
F71C | 0.161 | 0.0168
F71E | 1.02 | 1.5
F71M | 0.0919 | 1.2
F71D | 1.1 | 1.37
A59G | -0.424 | -0.916
A59C | -0.665 | 0.732
A59E | -0.245 | 0.171
A59D | -0.0282 | 0.274
A59K | -0.0687 | -0.733
A59P | -0.0792 | 
A59S | 0.217 | 0.732
A59I | 0.202 | 0.473
A59M | -0.0959 | -0.108
A59H | -0.614 | 
A59V | -0.507 | 0.0474
A59L | -0.434 | 0.562

Variant | scaled log2 fold change [1] | scaled log2 fold change [2]
A59F | 0.319 | -0.721
A59T | 0.332 | -0.0311
A59Q | 0.564 | -0.702
A59R | -0.761 | -0.456
A59Y | 0.0878 | -0.306
A59W | 0.216 | 0.283
A59N | -0.132 | 0.117
R60S | 0.275 | 0.216
R60C | 0.327 | -0.517
R60N | -0.096 | 0.128
R60P | -0.332 | 0.626
R60H | -0.288 | -0.116
R60Y | 0.215 | 0.0482
R60K | -0.27 | 
R60T | -0.956 | -0.542
R60M | -0.213 | 0.72
R60A | 0.137 | 
R60V | 0.116 | 
R60W | -0.217 | 0.972
R60G | -0.278 | -0.224
R60Q | -0.0931 | -0.217
R60F | 0.0888 | -0.201
R60L | 0.042 | -0.384
R60I | 0.0411 | 

Variant | scaled log2 fold change [1] | scaled log2 fold change [2]
R60E | -0.329 | 0.272
R58M | 0.306 | -0.781
R58S | 0.12 | -0.815
R58L | -0.211 | 0.174
R58Y | -0.339 | -0.258
R58N | -0.417 | -0.0662
R58P | 0.228 | 0.00503
R58Q | 0.0532 | -0.891
R58T | -0.167 | -0.0694
R58W | 0.133 | 0.3
R58V | 0.434 | 1.47
V69H | 1.16 | 1.1
V69S | 0.684 | 0.329
V69E | 1.06 | 1.55
V69R | 1.13 | 0.458
V69M | 0.273 | -0.0634
V69F | -0.809 | -0.24
V69W | 0.674 | 0.931
V69I | -0.0537 | -0.536
V69K | 1.22 | 1.85
V69L | -0.537 | -0.407
V69Q | 1.14 | 0.294
V69A | 0.0154 | 0.807
V69T | 0.119 | 0.953

Variant | scaled log2 fold change [1] | scaled log2 fold change [2]
V69N | 1.01 | 0.921
V69Y | 1.05 | 1.86
V69P | 1.29 | 0.484
V69D | 1.04 | 1.26
V69G | 1.19 | 1.06
V69C | 0.189 | 0.782
I67G | 0.747 | 0.579
I67K | 0.691 | 0.44
I67C | 0.2 | -0.121
I67W | 0.658 | -0.0492
I67E | 0.963 | 0.881
I67F | 0.0413 | -0.46
I67V | -0.37 | 0.832
I67R | 0.504 | 0.363
I67P | 0.222 | -0.205
I67L | 0.113 | 0.514
I67M | 0.35 | 0.129
I67H | 0.608 | 0.601
I67D | 1.08 | 1.13
I67A | 0.473 | 0.322
I67Q | 0.436 | 0.135
I67T | 0.0745 | 0.365
I67S | 0.0219 | 0.253
I67Y | 0.135 | -0.731

Variant | scaled log2 fold change [1] | scaled log2 fold change [2]
I67N | 0.44 | 0.681
S61F | -0.102 | 
S61E | 0.468 | 
S61W | -0.113 | 0.846
S61K | -0.0816 | 
S61R | -0.524 | 
S61Q | 0.577 | 
S61N | -0.737 | -0.556
S61M | 0.184 | 
S61Y | 0.603 | 1.51
S61I | -0.527 | 
S61D | 1.01 | 1.93
S61G | -0.405 | 
S61V | 0.78 | 
K66D | -0.097 | 
K66E | -0.297 | -0.118
K66M | -0.188 | -0.226
K66A | -0.0856 | 0.00324
K66P | -0.38 | -0.254
K66W | -0.5 | -0.676
K66Y | -0.0452 | -0.0505
K66Q | -0.382 | 0.00416
K66H | 0.0524 | -0.795
K66V | 0.0478 | -0.102

Variant | scaled log2 fold change [1] | scaled log2 fold change [2]
K66R | 0.114 | -0.744
K66L | -0.00608 | -0.145
K66S | -0.679 | -0.304
K66N | -0.167 | 0.199
K66T | 0.0453 | 0.851
K66I | -0.298 | -0.755
K66G | 0.301 | 0.245
K66C | -0.0989 | -0.0245
K66F | -0.158 | -0.676
H70I | 0.093 | -0.0895
H70D | 0.33 | 1.31
H70Q | 0.0254 | -0.0243
H70F | 0.152 | 0.385
H70E | 0.148 | 0.829
H70W | -0.0809 | -0.922
H70L | -0.219 | -0.612
H70C | 0.396 | 
H70S | 0.277 | -0.697
H70Y | 0.0486 | 
H70T | -0.764 | 
H70M | -0.0655 | 0.0916
H70G | 0.373 | 1.09
H70R | -0.349 | -0.0802
H70N | 0.0583 | -0.00885

Variant | scaled log2 fold change [1] | scaled log2 fold change [2]
H70P | 0.933 | 0.983
H70K | -0.215 | 0.573
H70V | 0.191 | -1.13
H70A | 0.42 | -0.104
S62W | -0.132 | 
S62L | 0.0177 | 0.0918
S62R | -0.893 | 0.128
S62K | 0.104 | 1.13
S62F | 0.075 | 0.425
S62Q | 0.0996 | 0.145
S62C | -0.366 | -0.138
S62T | -0.0712 | -0.205
S62Y | -0.427 | 
S62N | 0.0847 | -0.479
S62M | 0.0792 | 
S62D | 0.269 | 1.05
S62A | -0.86 | -0.876
S62E | 0.0386 | 
S62H | -0.223 | 0.729
S62G | -0.00606 | 0.141
S62I | 0.0619 | -0.0402
E64D | 0.0681 | -0.0197
E64R | -0.913 | 0.0821
E64A | -0.335 | 1.19

Variant | scaled log2 fold change [1] | scaled log2 fold change [2]
E64P | 0.158 | 0.0559
E64Q | -0.0857 | -0.107
E64V | -0.321 | -0.136
E64I | 0.394 | 0.168
E64F | 0.0956 | 
E64L | -0.17 | -0.952
E64S | -0.691 | -0.469
E64T | 0.135 | -0.296
E64M | -0.109 | -0.0994
E64C | -0.0781 | 0.793
E64H | -0.531 | -0.334
E64W | -0.394 | 
E64G | -0.323 | 0.0488
E64K | 0.278 | -0.162
E64Y | 0.374 | -0.0105
S63E | 0.199 | -0.451
S63V | 0.189 | 0.0727
S63P | 0.175 | 0.000753
S63N | -0.0613 | -0.00891
S63I | -1.11 | 0.315
S63C | 0.302 | -0.446
S63H | 0.197 | 0.218
S63Q | -0.105 | 0.797
S63F | 0.0355 | -0.0458

Variant | scaled log2 fold change [1] | scaled log2 fold change [2]
S63K | 0.173 | -0.352
S63W | 0.527 | 0.0977
S63D | -0.272 | -0.143
S63G | 0.283 | 0.000639
S63M | 0.124 | -0.609
S63Y | 0.0691 | 0.7
S63L | 0.0558 | -0.251
S63T | 0.0678 | -0.0954
S63A | 0.227 | 0.763
S63R | 0.598 | -0.598
D65F | -0.512 | -0.119
D65I | 0.277 | 
D65K | -0.369 | -0.531
D65C | 0.243 | -0.327
D65Q | 0.0546 | 0.293
D65P | -0.000175 | 0.99
D65A | -0.0535 | -0.237
D65S | -0.464 | 0.216
D65N | -0.21 | 0.98
D65M | -0.334 | -0.318
D65G | 0.134 | -0.165
D65H | 0.192 | 0.0338
D65R | -0.395 | -0.257
D65W | 0.185 | 0.126

Variant | scaled log2 fold change [1] | scaled log2 fold change [2]
D65L | 0.175 | -0.119
D65Y | 0.323 | 0.288
D65V | 0.161 | -0.27
D65E | -0.139 | 0.087
D65T | -0.192 | 
T68H | 0.349 | -0.699
T68R | -0.0852 | -0.377
T68M | -0.209 | 0.641
T68N | 0.00412 | -0.202
T68E | -0.318 | -0.497
T68Q | 0.0568 | -0.103
T68F | -0.000655 | 0.914
T68L | 0.248 | 0.885
T68A | -0.0418 | -0.389
T68I | 0.0915 | 0.0716
T68V | 0.247 | 0.769
T68G | -0.0825 | 0.801
T68C | 0.309 | -0.148
T68Y | 0.308 | 0.0848
T68P | 0.317 | 0.911
T68K | -0.155 | -0.329
T68D | 0.0867 | 0.164
T68S | -0.0825 | 0.833
T68W | 0.0579 | 0.896
